Article PMC10582078

Legend:
[1] = live-cell imaging, rat hippocampal neuron axons; conditions: glycan lost; control: WT NF-L
IP/IB, baseline = conditions: glycan lost; control: WT NF-L
[2] = IFA of co-assembled filaments, SW13 vim− cells; conditions: glycan lost; control: WT NF-L
IP/IB = conditions: glycan gained; control: WT NF-L without OGT
[3] = IFA of filaments, NEFL−/− SH-SY5Y; conditions: glycan gained; control: WT NF-L without OGT
[4] = differential extraction, urea-fraction NF-L, 293T; conditions: glycan gained; control: WT NF-L without OGT
[5] = differential extraction, NEFL−/− 293T, no OGT; conditions: glycan lost; control: WT NF-L without OGT

B1: neurofilament-light (NF-L): NF-L4A (protein)
parent chain: MSSFSYEPYYSTSYKRRYVETPRVHISSVRSGYSTARSAYSSYSAPVSSSLSVRRSYSSSSGSLMPSLENLDLSQVAAISNDLKSIRTQEKAQLQDLNDRFASFIERVHELEQQNKVLEAELLVLRQKHSEPSRFRALYEQEIRDLRLAAEDATNEKQALQGEREGLEETLRNLQARYEEEVLSREDAEGRLMEARKGADEAALARAELEKRIDSLMDEISFLKKVHEEEIAELQAQIQYAQISVEMDVTKPDLSAALKDIRAQYEKLAAKNMQNAEEWFKSRFTVLTESAAKNTDAVRAAKDEVSESRRLLKAKTLEIEACRGMNEALEKQLQELEDKQNADISAMQDTINKLENELRTTKSEMARYLKEYQDLLNVKMALDIEIAAYRKLLEGEETRLSFTSVGSITSGYSQSSQVFGRSAYGGLQTSSYLMSTRSFPSYYTSHVQEEQIEVEETIEAAKAEEAKDEPPSEGEAEEEEKDKEEAEEEEAAEEEEAAKEESEEAKEEEEGGEGEEGEETKEAEEEEKKVEGAGEEQAAKKKD
For B1, the “other: suppression of mitochondrial motility” value [1] was “abolishes”, the “other: NF-L phosphorylation” value (IP/IB, baseline) was “increases” and the oligomerisation [2] was “decreases”.

B2: neurofilament-light (NF-L): OGT co-expression (protein)
parent chain: B1 parent chain
With B2 the “other: NF-L phosphorylation” value (IP/IB) was “decreases”, the oligomerisation [3] was “decreases” and the oligomerisation [4] was “decreases”.

B3: neurofilament-light (NF-L): S34A (protein)
parent chain: B1 parent chain
For B3, the oligomerisation [5] was “no change”.

B4: neurofilament-light (NF-L): S48A (protein)
parent chain: B1 parent chain
With B4 the oligomerisation [5] was “no change”.

B5: neurofilament-light (NF-L): S27A (protein)
parent chain: B1 parent chain
With B5 the oligomerisation [5] was “no change”.

B6: neurofilament-light (NF-L): S431A (protein)
parent chain: B1 parent chain
With B6 the oligomerisation [5] was “no change”.

B7: neurofilament-light (NF-L): T21A (protein)
parent chain: B1 parent chain
With B7 the oligomerisation [5] was “no change”.

B8: neurofilament-light (NF-L): NF-L5A (protein)
parent chain: B1 parent chain
For B8, the “other: NF-L phosphorylation” value (IP/IB, baseline) was “increases”.
